{
  "source": "patent US20140162952A1",
  "about": "(ONCOTHERAPY SCIENCE, published 2014)",
  "binders": {"B1": {"name": "ERAP1 alanine mutant of D169 (D169A) (other)", "chain": "MEEILRKLQKEASGSKYKAIKESCTWALETLGGLDTIVKIPPHVLREKCLLPLQLALESKNVKLAQHALAGMQKLLSEERFVSMETDSDEKQLLNQILNAVKVTPSLNEDLQVEVMKVLLCITYTPTFDLNGSAVLKIAEVCIETYISSCHQRSINTAVRATLSQMLSALTLQLRQRQENTIIENPDVPQDFGNQGSTVESLCDDVVSVLTVLCEKLQAAINDSQQLQLLYLECILSVLSSSSSSMHLHRRFTDLIWKNLCPALIVILGNPIHDKTITSAHTSSTSTSLESDSASPGVSDHGRGSGCSCTAPALSGPVARTIYYIAAELVRLVGSVDSMKPVLQSLYHRVLLYPPPQHRVEAIKIMKEILGSPQRLCDLAGPSSTESESRKRSISKRKSHLDLLKLIMDGMTEACIKGGIEACYAAVSCVCTLL", "notes": "also called D169 mutant construct; not shown: Flag tag"}, "B2": {"name": "ERAP1 alanine mutant of Q165 (Q165A) (other)", "chain": "B1 chain with Q165A, A169D", "notes": "also called Q165 mutant construct; not shown: Flag tag"}, "B3": {"name": "ERAP1 alanine mutant of Q165 and D169 (Q165A, D169A) (other)", "chain": "B1 chain with Q165A", "notes": "not shown: Flag tag"}, "B4": {"name": "ERAP1 435-2177 (Flag-ERAP1) (other, not shown: small tags and cut ends)", "chain": "GALDELSQGKGLSEGQVQLLLLRLEELKDGAEWSRDSMEINEADFRWQRRVLSSEHTPWESGNERSLDISISVTTDTGQTTLEGELGQTTPEDHSGNHKNSLKSPAIPEGKETLSKVLETEAVDQPDVVQRSHTVPYPDITNFLSVDCRTRSYGSRYSESNFSVDDQDLSRTEFDSCDQYSMAAEKDSGRSDVSDIGSDNCSLADEEQTPRDCLGHRSLRTAALSLKLLKNQEADQHSARLFIQSLEGLLPRLLSLSNVEEVDTALQNFASTFCSGMMHSPGFDGNSSLSFQMLMNADSLYTAAHCALLLNLKLSHGDYYRKRPTLAPGVMKDFMKQVQTSGVLMVFSQAWIEELYHQVLDRNMLGEAGYWGSPEDNSLPLITMLTDIDGLESSAIGGQLMASAATESPFAQSRRIDDSTVAGVAFARYILVGCWKNLIDTLSTPLTGRMAGSSKGLAFILGAEGIKEQNQKERDAICMSLDGLRKAARLSCALGVAANCASALAQMAAASCVQEEKEEREAQEPSDAITQVKLKVEQKLEQIGKVQGVWLHTAHVLCMEAILSVGLEMGSHNPDCWPHVFRVCEYVGTLEHNHFSDGASQPPLTISQPQKATGSAGLLGDPECEGSPPEHSPEQGRSLSTAPVVQPLSIQDLVREGSRGRASDFRGGSLMSGSSAAKVVLTLSTQADRLFEDATDKLNLMALGGFLYQLKKASQSQLFHSVTDTVDYSLAMPGEVKSTQDRKSALHLFRLGNAMLRIVRSKARPLLHVMRCWSLVAPHLVEAACHKERHVSQKAVSFIHDILTEVLTDWNEPPHFHFNEALFRPFERIMQLELCDEDVQDQVVTSIGELVEVCSTQIQSGWRPLFSALETVHGGNKSEMKEYLVGDYSMGKGQAPVFDVFEAFLNTDNIQVFANAATSYIMCLMKFVKGLGEVDCKEIGDCAPAPGAPSTDLCLPALDYLRRCSQLLAKIYKMPLKPIFLSGRLAGLPRRLQEQSASSEDGIESVLSDFDDDTGLIEVWIILLEQLTAAVSNCPRQHQPPTLDLLFELLRDVTKTPGPGFGIYAVVHLLLPVMSVWLRRSHKDHSYWDMASANFKHAIGLSCELVVEHIQSFLHSDIRYESMINTMLKDLFELLVACVAKPTETISRVGCSCIRYVLVTAGPVFTEEMWRLACCALQDAFSATLKPVKDLLGCFHSGTESFSGEGCQVRVAAPSSSPSAEAEYWRIRAMAQQVFMLDTQCSPKTPNNFDHAQSCQLIIELPPDEKPNGHTKKSVSFREIVVSLLSHQVLLQNLYDILLEEFVKGPSPGEEKTIQVPEAKLAGFLRYISMQNLAVIFDLLLDSYRTAREFDTSPGLKCLLKKVSGIGGAANLYRQSAMSFNIYFHALVCAVLTNQETITAEQVKKVLFEDDERSTDSSQQCSSEDEDIFEETAQVSPPRGKEKRQWRARMPLLSVQPVSNADWVWLVKRLHKLCMELCNNYIQMHLDLENCMEEPPIFKGDPFFILPSFQSESSTPSTGGFSGKETPSEDDRSQSREHMGESLSLKAGGGDLLLPPSPKVEKKDPSRKKEWWENAGNKIYTMAADKTISKLMTEYKKRKQQHNLSAFPKEVKVEKKGEPLGPRGQDSPLLQRPQHLMDQGQMRHSFSAGPELLRQDKRPRSGSTGSSLSVSVRDAEAQIQAWTNMVLTVLNQIQILPDQTFTALQPAVFPCISQLTCHVTDIRVRQAVREWLGRVGRVYDIIV"}, "B5": {"name": "ERAP1-peptide (11R-bound dominant negative peptide, ERAP1 165-177) (peptide)", "peptide": "RRRRRRRRRRRQMLSDLTLQLRQR"}, "B6": {"name": "Flag-ERAP1 1-250 (other, not shown: small tags and cut ends)", "chain": "MEEILRKLQKEASGSKYKAIKESCTWALETLGGLDTIVKIPPHVLREKCLLPLQLALESKNVKLAQHALAGMQKLLSEERFVSMETDSDEKQLLNQILNAVKVTPSLNEDLQVEVMKVLLCITYTPTFDLNGSAVLKIAEVCIETYISSCHQRSINTAVRATLSQMLSDLTLQLRQRQENTIIENPDVPQDFGNQGSTVESLCDDVVSVLTVLCEKLQAAINDSQQLQLLYLECILSVLSSSSSSMHLHR", "notes": "deletion construct"}, "B7": {"name": "Flag-ERAP1 1-100 (other, not shown: small tags and cut ends)", "chain": "MEEILRKLQKEASGSKYKAIKESCTWALETLGGLDTIVKIPPHVLREKCLLPLQLALESKNVKLAQHALAGMQKLLSEERFVSMETDSDEKQLLNQILNA", "notes": "deletion construct"}, "B8": {"name": "ERAP1 1468-2177 (Flag-ERAP1) (other, not shown: small tags and cut ends)", "chain": "CPRQHQPPTLDLLFELLRDVTKTPGPGFGIYAVVHLLLPVMSVWLRRSHKDHSYWDMASANFKHAIGLSCELVVEHIQSFLHSDIRYESMINTMLKDLFELLVACVAKPTETISRVGCSCIRYVLVTAGPVFTEEMWRLACCALQDAFSATLKPVKDLLGCFHSGTESFSGEGCQVRVAAPSSSPSAEAEYWRIRAMAQQVFMLDTQCSPKTPNNFDHAQSCQLIIELPPDEKPNGHTKKSVSFREIVVSLLSHQVLLQNLYDILLEEFVKGPSPGEEKTIQVPEAKLAGFLRYISMQNLAVIFDLLLDSYRTAREFDTSPGLKCLLKKVSGIGGAANLYRQSAMSFNIYFHALVCAVLTNQETITAEQVKKVLFEDDERSTDSSQQCSSEDEDIFEETAQVSPPRGKEKRQWRARMPLLSVQPVSNADWVWLVKRLHKLCMELCNNYIQMHLDLENCMEEPPIFKGDPFFILPSFQSESSTPSTGGFSGKETPSEDDRSQSREHMGESLSLKAGGGDLLLPPSPKVEKKDPSRKKEWWENAGNKIYTMAADKTISKLMTEYKKRKQQHNLSAFPKEVKVEKKGEPLGPRGQDSPLLQRPQHLMDQGQMRHSFSAGPELLRQDKRPRSGSTGSSLSVSVRDAEAQIQAWTNMVLTVLNQIQILPDQTFTALQPAVFPCISQLTCHVTDIRVRQAVREWLGRVGRVYDIIV", "notes": "deletion construct"}, "B9": {"name": "estrogen receptor α (ERα) (receptor)", "chain": "MTMTLHTKASGMALLHQIQGNELEPLNRPQLKIPLERPLGEVYLDSSKPAVYNYPEGAAYEFNAAAAANAQVYGQTGLPYGPGSEAAAFGSNGLGGFPPLNSVSPSPLMLLHPPPQLSPFLQPHGQQVPYYLENEPSGYTVREAGPPAFYRPNSDNRRQGGRERLASTNDKGSMAMESAKETRYCAVCNDYASGYHYGVWSCEGCKAFFKRSIQGHNDYMCPATNQCTIDKNRRKSCQACRLRKCYEVGMMKGGIRKDRRGGRMLKHKRQRDDGEGRGEVGSAGDMRAANLWPSPLMIKRSKKNSLALSLTADQMVSALLDAEPPILYSEYDPTRPFSEASMMGLLTNLADRELVHMINWAKRVPGFVDLTLHDQVHLLECAWLEILMIGLVWRSMEHPGKLLFAPNLLLDRNQGKCVEGMVEIFDMLLATSSRFRMMNLQGEEFVCLKSIILLNSGVYTFLSSTLKSLEEKDHIHRVLDKITDTLIHLMAKAGLTLQQQHQRLAQLLLILSHIRHMSNKGMEHLYSMKCKNVVPLYDLLLEMLDAHRLHAPTSRGGASVEETDQSHLATAGSTSSHSLQKYYITGEAEGFPATV", "notes": "Immunoprecipitated with anti-ERα antibody from cytoplasm or nuclear fractions"}},
  "key": {"[1]": {"target": "T1, HA-PHB2 (HA-tagged PHB2 construct) (human, UniProt Q99623 1-299, limits assumed)", "T1 construct": "Expressed by transfection in COS-7 or HEK293T cells; also called PHB2/REA construct; HA-tagged PHB2/REA (WT); not shown: HA tag", "T1 sequence (Q99623 whole entry)": "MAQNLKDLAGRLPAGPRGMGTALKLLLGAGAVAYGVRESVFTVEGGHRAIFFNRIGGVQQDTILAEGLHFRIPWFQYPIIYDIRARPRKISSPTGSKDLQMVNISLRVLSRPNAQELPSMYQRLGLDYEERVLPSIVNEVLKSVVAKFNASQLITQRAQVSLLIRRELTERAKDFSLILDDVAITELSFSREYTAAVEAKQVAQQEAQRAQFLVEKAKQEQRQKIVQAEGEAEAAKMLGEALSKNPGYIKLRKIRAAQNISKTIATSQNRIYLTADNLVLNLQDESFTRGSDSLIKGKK", "experiment": "COS-7 co-transfection with the PHB2/REA construct, IP with anti-FLAG antibody, immunoblot"}, "[2]": {"target": "T1, HA-PHB2 (HA-tagged PHB2 construct)", "experiment": "COS-7 co-transfection with the PHB2/REA construct, IP with anti-HA antibody, immunoblot"}, "[3]": {"target": "T1, HA-PHB2 (HA-tagged PHB2 construct)", "experiment": "co-immunoprecipitation from COS-7 cells, IP anti-FLAG, blot anti-HA (second experiment)"}, "[4]": {"target": "T1, HA-PHB2 (HA-tagged PHB2 construct)", "experiment": "COS-7 co-transfection with the PHB2/REA construct, IP and immunoblot"}, "[5]": {"target": "T1, HA-PHB2 (HA-tagged PHB2 construct)", "experiment": "co-IP from COS-7 cells co-transfected with a Flag-ERAP1 construct and HA-PHB2; IP anti-Flag, IB anti-HA"}, "[6]": {"target": "inherent PHB2/REA (prohibitin 2 / Repressor of Estrogen Activity) (human, UniProt Q99623 2-299, limits assumed)", "sequence (Q99623 2-299 limits assumed)": "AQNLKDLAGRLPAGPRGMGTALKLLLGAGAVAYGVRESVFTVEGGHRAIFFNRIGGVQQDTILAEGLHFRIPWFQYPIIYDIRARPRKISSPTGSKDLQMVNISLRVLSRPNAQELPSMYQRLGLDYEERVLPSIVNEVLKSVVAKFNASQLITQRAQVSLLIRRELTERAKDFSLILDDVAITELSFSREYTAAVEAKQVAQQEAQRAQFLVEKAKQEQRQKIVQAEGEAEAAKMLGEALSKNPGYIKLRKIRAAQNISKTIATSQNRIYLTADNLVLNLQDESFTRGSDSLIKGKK", "experiment": "cell-based or functional assay"}, "[7]": {"target": "T1, HA-PHB2 (HA-tagged PHB2 construct)", "experiment": "co-IP from COS-7 cells co-transfected with a Flag-ERAP1 construct and HA-PHB2; IP anti-Flag, IB anti-HA", "remark": "listed apart in the source"}, "NcoR": {"target": "T2, NcoR (human, UniProt O75376 1-2440, limits assumed)", "T2 construct": "also called transcription coupling suppression factor NcoR", "T2 sequence (O75376 whole entry)": "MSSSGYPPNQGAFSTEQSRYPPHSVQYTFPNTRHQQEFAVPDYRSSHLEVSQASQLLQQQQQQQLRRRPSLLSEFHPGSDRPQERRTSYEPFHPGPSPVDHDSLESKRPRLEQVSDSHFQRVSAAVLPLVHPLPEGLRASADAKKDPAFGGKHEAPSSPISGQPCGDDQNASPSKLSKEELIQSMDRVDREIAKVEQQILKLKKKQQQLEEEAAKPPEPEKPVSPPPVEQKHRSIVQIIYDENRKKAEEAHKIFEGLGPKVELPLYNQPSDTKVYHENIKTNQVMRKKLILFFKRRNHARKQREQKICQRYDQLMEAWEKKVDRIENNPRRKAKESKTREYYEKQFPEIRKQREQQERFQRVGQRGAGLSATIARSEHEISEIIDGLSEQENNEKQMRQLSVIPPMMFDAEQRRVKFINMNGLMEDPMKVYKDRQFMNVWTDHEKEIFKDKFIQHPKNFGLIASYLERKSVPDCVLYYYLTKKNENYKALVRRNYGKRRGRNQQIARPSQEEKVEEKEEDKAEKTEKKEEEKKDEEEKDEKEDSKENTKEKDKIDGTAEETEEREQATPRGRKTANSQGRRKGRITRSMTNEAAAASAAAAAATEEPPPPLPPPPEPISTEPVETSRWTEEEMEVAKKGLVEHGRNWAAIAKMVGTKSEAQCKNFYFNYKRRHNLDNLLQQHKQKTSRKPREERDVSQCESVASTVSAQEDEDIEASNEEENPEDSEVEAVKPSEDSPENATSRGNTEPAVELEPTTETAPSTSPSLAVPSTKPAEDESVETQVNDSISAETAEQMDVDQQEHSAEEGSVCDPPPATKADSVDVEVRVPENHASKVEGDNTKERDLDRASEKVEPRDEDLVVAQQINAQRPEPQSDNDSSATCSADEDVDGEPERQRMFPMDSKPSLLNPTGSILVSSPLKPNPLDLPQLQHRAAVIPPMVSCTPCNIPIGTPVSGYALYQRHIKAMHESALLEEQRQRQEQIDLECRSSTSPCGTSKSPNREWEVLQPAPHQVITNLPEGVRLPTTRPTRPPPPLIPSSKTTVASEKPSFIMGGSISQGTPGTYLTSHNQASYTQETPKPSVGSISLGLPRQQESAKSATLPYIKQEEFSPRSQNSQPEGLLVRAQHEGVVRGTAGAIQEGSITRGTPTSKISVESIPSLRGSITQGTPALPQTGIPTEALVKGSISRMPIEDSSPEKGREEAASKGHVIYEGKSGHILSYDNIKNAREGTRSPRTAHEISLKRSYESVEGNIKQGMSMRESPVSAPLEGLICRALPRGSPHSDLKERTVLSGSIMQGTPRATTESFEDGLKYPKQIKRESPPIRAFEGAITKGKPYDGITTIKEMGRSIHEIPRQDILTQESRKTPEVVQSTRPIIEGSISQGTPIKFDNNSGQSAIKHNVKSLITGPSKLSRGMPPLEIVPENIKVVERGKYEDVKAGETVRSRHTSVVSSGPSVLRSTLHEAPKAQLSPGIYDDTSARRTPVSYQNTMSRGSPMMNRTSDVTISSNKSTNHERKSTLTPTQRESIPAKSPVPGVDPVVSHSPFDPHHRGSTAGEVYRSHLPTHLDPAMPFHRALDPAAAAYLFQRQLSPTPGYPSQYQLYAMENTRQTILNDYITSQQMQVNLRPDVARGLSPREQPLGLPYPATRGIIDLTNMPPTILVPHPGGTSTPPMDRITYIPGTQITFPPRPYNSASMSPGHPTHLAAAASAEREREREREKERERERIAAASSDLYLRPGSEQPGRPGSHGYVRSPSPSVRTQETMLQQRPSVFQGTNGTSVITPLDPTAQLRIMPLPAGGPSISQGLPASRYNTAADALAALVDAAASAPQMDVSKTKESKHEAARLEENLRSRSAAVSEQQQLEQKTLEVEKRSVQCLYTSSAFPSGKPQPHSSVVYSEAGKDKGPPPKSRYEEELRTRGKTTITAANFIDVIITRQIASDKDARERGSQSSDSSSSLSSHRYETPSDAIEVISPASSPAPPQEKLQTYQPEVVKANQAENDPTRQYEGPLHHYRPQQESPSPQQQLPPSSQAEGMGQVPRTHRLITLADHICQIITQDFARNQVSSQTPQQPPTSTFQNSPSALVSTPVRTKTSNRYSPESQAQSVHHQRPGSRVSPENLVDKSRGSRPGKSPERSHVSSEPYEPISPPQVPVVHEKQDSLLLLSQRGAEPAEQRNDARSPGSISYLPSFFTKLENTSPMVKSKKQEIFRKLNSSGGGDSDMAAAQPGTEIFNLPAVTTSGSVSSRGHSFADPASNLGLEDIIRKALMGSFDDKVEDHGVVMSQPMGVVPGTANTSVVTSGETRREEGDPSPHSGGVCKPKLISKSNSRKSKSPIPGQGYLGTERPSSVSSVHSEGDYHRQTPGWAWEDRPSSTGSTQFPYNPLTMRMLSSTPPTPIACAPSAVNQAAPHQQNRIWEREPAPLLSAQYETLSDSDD", "experiment": "co-IP from the nuclear fraction of KPL-3C cells, 24 h, 10 nM E2 and/or 10 µM Peptide"}, "Her2": {"target": "Her2 (human, UniProt P04626 23-1255)", "experiment": "anti-ERα co-IP from the cytoplasm fraction of BT-474 cells, 24 h, 10 nM E2 and/or 10 µM Peptide"}, "EGFR": {"target": "EGFR (human, UniProt P00533 25-1210)", "experiment": "anti-ERα co-IP from the cytoplasm fraction of BT-474 cells, 24 h, 10 nM E2 and/or 10 µM Peptide"}},
  "note": "Positions count from the first letter of the chain named. In names and notes the source's numbering stands. Where two headings read alike, the source gives them in different places.",
  "data": [
    {"binder": "B1", "values": [
      {"measurement": "coprecipitation band, ratio when that with ERAP1 (1-434 aa) is designated as 100", "setting": "[1]", "value": 22, "unit": "%"},
      {"measurement": "coprecipitation band, ratio when that with ERAP1 (1-434 aa) is designated as 100", "setting": "[2]", "value": 0, "unit": "%"},
      {"measurement": "ratio of the coprecipitated band (ERAP1 1-434 = 100)", "setting": "[3]", "value": 33}
    ]},
    {"binder": "B2", "values": [
      {"measurement": "coprecipitation band, ratio when that with ERAP1 (1-434 aa) is designated as 100", "setting": "[1]", "value": 60, "unit": "%"},
      {"measurement": "coprecipitation band, ratio when that with ERAP1 (1-434 aa) is designated as 100", "setting": "[2]", "value": 24, "unit": "%"},
      {"measurement": "ratio of the coprecipitated band (ERAP1 1-434 = 100)", "setting": "[3]", "value": 63}
    ]},
    {"binder": "B3", "values": [
      {"measurement": "coprecipitation band, ratio when that with ERAP1 (1-434 aa) is designated as 100", "setting": "[4]", "value": 12, "unit": "%"}
    ]},
    {"binder": "B4", "values": [
      {"measurement": "binding result", "setting": "[5]", "value": "no binding"}
    ]},
    {"binder": "B5", "values": [
      {"measurement": "IC50 of suppression effect for the cell proliferation in MCF-7 cells for 24 hours", "setting": "[6]", "value": 2.18, "unit": "µM"}
    ]},
    {"binder": "B6", "values": [
      {"measurement": "binding result", "setting": "[7]", "value": "binds"}
    ]},
    {"binder": "B7", "values": [
      {"measurement": "binding result", "setting": "[7]", "value": "no binding"}
    ]},
    {"binder": "B8", "values": [
      {"measurement": "binding result", "setting": "[5]", "value": "no binding"}
    ]},
    {"binder": "B9", "values": [
      {"measurement": "binding result", "setting": "NcoR", "value": "binds"},
      {"measurement": "binding result", "setting": "Her2", "value": "binds"},
      {"measurement": "binding result", "setting": "EGFR", "value": "binds"}
    ]}
  ]
}
